Measured values: publication PMC5462769, “A highly conserved sequence of the viral TAP inhibitor ICP47 is required for freezing of the peptide transport cycle” (Scientific Reports, 2017)
Numbering of substitutions follows the chain as printed. Where two headings read alike, the source gives them in different places.

Tests used:
[1] = biological target: TAP (Homo sapiens) (UniProt Q03518); conditions: cited from earlier work
[2] = biological target: TAP (Homo sapiens) (UniProt Q03518); conditions: cited from earlier work; remark: listed apart in the source
[3] = biological target: rT1/hT2 (rat TAP1 with a human C-terminus, with human TAP2-FLAG) (rat | human) (UniProt P36370)
[4] = biological target: rT1/rT2 (rat TAP1 with a human C-terminus, with rat TAP2-FLAG) (rat | human) (UniProt P36370)
[5] = biological target: T1, hT1/rT2 (human TAP1 with rat TAP2-FLAG) (human | rat, UniProt Q03518 1-748; P36372 1-703); assay: cell-based or functional assay
T1 sequence 1: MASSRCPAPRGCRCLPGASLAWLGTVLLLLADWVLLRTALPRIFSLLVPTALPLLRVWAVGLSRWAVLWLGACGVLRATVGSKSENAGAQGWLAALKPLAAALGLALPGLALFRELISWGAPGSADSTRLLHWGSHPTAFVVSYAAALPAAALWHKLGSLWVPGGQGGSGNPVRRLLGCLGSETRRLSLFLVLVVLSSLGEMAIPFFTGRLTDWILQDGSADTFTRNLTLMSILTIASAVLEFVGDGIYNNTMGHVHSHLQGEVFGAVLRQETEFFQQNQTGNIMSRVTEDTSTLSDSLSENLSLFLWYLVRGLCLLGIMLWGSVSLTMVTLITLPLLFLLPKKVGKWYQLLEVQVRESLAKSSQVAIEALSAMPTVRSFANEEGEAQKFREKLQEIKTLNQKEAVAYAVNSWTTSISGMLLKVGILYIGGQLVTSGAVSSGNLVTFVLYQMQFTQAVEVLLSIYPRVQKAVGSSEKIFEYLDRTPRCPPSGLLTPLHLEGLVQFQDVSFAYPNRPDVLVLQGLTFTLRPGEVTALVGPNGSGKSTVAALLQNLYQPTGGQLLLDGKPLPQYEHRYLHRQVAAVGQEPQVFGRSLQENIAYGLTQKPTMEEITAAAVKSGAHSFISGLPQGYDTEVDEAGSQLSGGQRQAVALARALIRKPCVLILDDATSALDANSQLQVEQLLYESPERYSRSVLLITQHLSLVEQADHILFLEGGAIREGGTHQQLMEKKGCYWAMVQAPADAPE
T1 sequence 2: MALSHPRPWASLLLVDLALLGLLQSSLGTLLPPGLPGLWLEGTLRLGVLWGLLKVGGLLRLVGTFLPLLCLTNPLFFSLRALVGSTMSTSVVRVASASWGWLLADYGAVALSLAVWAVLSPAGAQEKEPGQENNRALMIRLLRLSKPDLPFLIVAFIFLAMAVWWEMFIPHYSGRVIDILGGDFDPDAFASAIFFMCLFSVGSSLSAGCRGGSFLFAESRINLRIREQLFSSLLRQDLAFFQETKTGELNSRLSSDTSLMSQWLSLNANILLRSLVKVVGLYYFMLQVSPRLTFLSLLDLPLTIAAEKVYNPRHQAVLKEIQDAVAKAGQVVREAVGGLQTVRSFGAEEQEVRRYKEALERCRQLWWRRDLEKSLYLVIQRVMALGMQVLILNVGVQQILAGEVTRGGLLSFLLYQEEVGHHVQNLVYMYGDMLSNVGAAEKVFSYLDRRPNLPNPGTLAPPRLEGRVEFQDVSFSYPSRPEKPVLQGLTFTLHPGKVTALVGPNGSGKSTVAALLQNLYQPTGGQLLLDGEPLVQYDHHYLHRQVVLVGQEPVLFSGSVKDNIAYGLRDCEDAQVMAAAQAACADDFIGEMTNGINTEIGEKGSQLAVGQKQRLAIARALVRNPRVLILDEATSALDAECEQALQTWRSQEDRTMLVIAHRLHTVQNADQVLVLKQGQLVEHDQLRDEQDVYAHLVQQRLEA

[6] = biological target: T2, hT1/hT2 (human TAP1 with human TAP2-FLAG) (human, UniProt Q03518 1-748; Q03519 1-686); assay: cell-based or functional assay
T2 sequence 1: T1 sequence 1
T2 sequence 2: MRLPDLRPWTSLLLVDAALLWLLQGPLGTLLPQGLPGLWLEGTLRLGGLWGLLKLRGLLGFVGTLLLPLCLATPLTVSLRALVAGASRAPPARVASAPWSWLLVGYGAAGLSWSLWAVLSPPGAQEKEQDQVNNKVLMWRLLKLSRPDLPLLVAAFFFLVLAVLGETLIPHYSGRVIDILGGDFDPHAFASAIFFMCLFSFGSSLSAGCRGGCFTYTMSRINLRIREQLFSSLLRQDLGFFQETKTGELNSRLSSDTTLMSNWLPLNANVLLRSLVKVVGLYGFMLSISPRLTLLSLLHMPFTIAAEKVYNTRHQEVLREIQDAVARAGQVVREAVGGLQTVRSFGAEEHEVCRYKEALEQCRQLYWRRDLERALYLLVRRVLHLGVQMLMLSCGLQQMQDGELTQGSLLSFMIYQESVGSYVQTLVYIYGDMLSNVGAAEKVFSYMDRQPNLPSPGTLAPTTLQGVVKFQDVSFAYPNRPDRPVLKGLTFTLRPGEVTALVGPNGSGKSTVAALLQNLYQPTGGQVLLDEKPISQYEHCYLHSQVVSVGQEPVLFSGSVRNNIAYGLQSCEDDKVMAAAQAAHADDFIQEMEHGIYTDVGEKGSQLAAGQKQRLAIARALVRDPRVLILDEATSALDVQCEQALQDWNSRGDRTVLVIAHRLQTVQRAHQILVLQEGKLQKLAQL

ICP47 1-53 (from UniProt P03170)
Kd [1]: 50 nM

ICP47 1-48 (from UniProt P03170)
Kd [2]: 126 nM

B1: ICP47-HA (wild-type ICP47 with a C-terminal HA-tag), in CMT64.5 cells (natural protein)
chain: MSWALEMADTFLDTMRVGPRTYADVRDEINKRGREDREAARTAVHDPERPLLRSPGLLPEIAPNASLGVAHRRTGGTVTDSPRNPVTR
MHC class I surface expression (mAb 20-8-4) on CMT64.5 cells, ICP47-positive relative to ICP47-negative cells [3]: 47 % expression
MHC class I surface expression (mAb 20-8-4) on CMT64.5 cells, ICP47-positive relative to ICP47-negative cells [4]: 101 % expression
MHC class I surface expression (mAb 20-8-4) on CMT64.5 cells, ICP47-positive relative to ICP47-negative cells [5]: 88 % expression
MHC class I surface expression (mAb 20-8-4) on CMT64.5 cells, ICP47-positive relative to ICP47-negative cells [6]: 17 % expression

B2: ICP47m-HA (ICP47 with Pro50Leu51Leu52 mutated to AlaAlaAla, C-terminal HA-tag), in CMT64.5 cells (natural protein, herpes simplex virus type-1 (HSV-1), UniProt P03170 1-88, looked up)
chain: B1 chain with P50A, L51A, L52A
MHC class I surface expression (mAb 20-8-4) on CMT64.5 cells, ICP47-positive relative to ICP47-negative cells [6]: 26 % expression
